Measurements taken from patent publication US9260500B2, “Peptide and use thereof” (Takeda Pharmaceutical Company Limited, priority 2009, dated 2016).
Non-standard residues stand in square brackets, D forms with d. No end group written: not given here. *: point of attachment. Tyr(2-F) = N[C@@H](Cc1ccc(O)cc1F)C(=O)O; Phe(4-F) = N[C@@H](Cc1ccc(F)cc1)C(=O)O; tBuAla = CC(C)(C)C[C@H](N)C(=O)O; 4Pal = N[C@@H](Cc1ccncc1)C(=O)O; d(pGlu) = O=C1CC[C@H](C(=O)O)N1; dHyp = O=C(O)[C@H]1C[C@H](O)CN1; Cha = N[C@@H](CC1CCCCC1)C(=O)O; Cit = NC(=O)NCCC[C@H](N)C(=O)O; dIva = CC[C@@](C)(N)C(=O)O; Isobutyryl = CC(C)C(=O)*; Iva = CC[C@](C)(N)C(=O)O; dNMeA = CN[C@H](C)C(=O)O; dAze = O=C(O)[C@H]1CCN1; Abu = CC[C@H](N)C(=O)O; Nleu = CC(C)CNCC(=O)O; Aib = CC(C)(N)C(=O)O; Aoc = NCCCCCCCC(=O)O

Columns and labels:
human Y2 receptor [1] = biological target: T1, human Y2 receptor (Homo sapiens, UniProt P49146); experiment: Receptor Binding Assay (RBA) for Human Y2, [125I]-PYY displacement on hY2R/CHO membrane fraction; settings: IC50 of test compound/IC50 of PYY(3-36) (PYY(3-36) taken as 1)
T1 construct: expressed in transfected cells; membrane fraction
T1 sequence (P49146 1-381): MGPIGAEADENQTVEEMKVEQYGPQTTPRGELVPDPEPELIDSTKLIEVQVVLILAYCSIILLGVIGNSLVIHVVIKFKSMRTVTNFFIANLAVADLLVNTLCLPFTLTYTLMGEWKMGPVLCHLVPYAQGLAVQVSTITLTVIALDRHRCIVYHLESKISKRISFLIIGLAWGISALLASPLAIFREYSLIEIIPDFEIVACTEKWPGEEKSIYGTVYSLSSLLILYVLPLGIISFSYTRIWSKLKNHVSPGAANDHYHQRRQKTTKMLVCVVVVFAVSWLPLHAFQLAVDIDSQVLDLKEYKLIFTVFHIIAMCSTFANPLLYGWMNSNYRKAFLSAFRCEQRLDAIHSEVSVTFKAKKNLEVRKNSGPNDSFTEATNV
How it was run: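 hY2R stably expressed in CHO/dhfr− cells; membrane fraction prepared from cells disrupted in 10 mM NaHCO3, 5 mM EDTA buffer with protease inhibitors. Binding read as displacement of [125I]-PYY.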

human Y2 receptor [2] = biological target: T1, human Y2 receptor; experiment: Human Y2 Receptor G Protein Binding Assay (GBA), [35S]GTPγS; assay type: biochemical; settings: EC50 of test compound/EC50 of PYY(3-36) (PYY3-36 taken as 1), hY2R/CHO membrane fraction
How it was run: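 Agonism measured as [35S]GTPγS binding, read by GF/C filtration and scintillation counting after 120 min at room temperature, using human Y2 membranes at 1 μg protein/mL in pH 7.4 Tris/MgCl2/NaCl/GDP buffer. Compound serially diluted 100 μM–1 nM; EC50 normalized to PYY(3-36) (ratio = compound/PYY).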

Substance	RBA IC50 Ratio (human Y2 receptor [1])	GBA EC50 Ratio (human Y2 receptor [2])
Ac-[D-Pro24, Cha27,28,36, D-Iva29, Aib31]-PYY(23-36) (Ac-S[dP]RH[Cha][Cha][dIva]L[Aib]TRQR[Cha]-NH2; SMILES CC[C@@](C)(NC(=O)[C@H](CC1CCCCC1)NC(=O)[C@H](CC1CCCCC1)NC(=O)[C@H](Cc1c[nH]cn1)NC(=O)[C@H](CCCNC(=N)N)NC(=O)[C@H]1CCCN1C(=O)[C@H](CO)NC(C)=O)C(=O)N[C@@H](CC(C)C)C(=O)NC(C)(C)C(=O)N[C@H](C(=O)N[C@@H](CCCNC(=N)N)C(=O)N[C@@H](CCC(N)=O)C(=O)N[C@@H](CCCNC(=N)N)C(=O)N[C@@H](CC1CCCCC1)C(N)=O)[C@@H](C)O) [compound No. 179]	71	37
Isobutanoyl-[Abu26, Cha27,28, Aib31, Tyr(2F)36]-PYY(25-36) (Isobutyryl-R[Abu][Cha][Cha]NL[Aib]TRQR[Tyr(2-F)]-NH2; SMILES CC[C@H](NC(=O)[C@H](CCCNC(=N)N)NC(=O)C(C)C)C(=O)N[C@@H](CC1CCCCC1)C(=O)N[C@@H](CC1CCCCC1)C(=O)N[C@@H](CC(N)=O)C(=O)N[C@@H](CC(C)C)C(=O)NC(C)(C)C(=O)N[C@H](C(=O)N[C@@H](CCCNC(=N)N)C(=O)N[C@@H](CCC(N)=O)C(=O)N[C@@H](CCCNC(=N)N)C(=O)N[C@@H](Cc1ccc(O)cc1F)C(N)=O)[C@@H](C)O) [compound No. 86]	19	11
[N(iBu)Gly23, D-Pro24, Cha27,28,36, Aib31]-PYY(23-36) ([Nleu][dP]RH[Cha][Cha]NL[Aib]TRQR[Cha]-NH2; N-terminus assumed; SMILES CC(C)CNCC(=O)N1CCC[C@@H]1C(=O)N[C@@H](CCCNC(=N)N)C(=O)N[C@@H](Cc1c[nH]cn1)C(=O)N[C@@H](CC1CCCCC1)C(=O)N[C@@H](CC1CCCCC1)C(=O)N[C@@H](CC(N)=O)C(=O)N[C@@H](CC(C)C)C(=O)NC(C)(C)C(=O)N[C@H](C(=O)N[C@@H](CCCNC(=N)N)C(=O)N[C@@H](CCC(N)=O)C(=O)N[C@@H](CCCNC(=N)N)C(=O)N[C@@H](CC1CCCCC1)C(N)=O)[C@@H](C)O) [compound No. 133]	5.8	2.4
[Aoc(8)23, D-Pro24, Cha27,28,36, Aib31]-PYY(23-36) ([Aoc][dP]RH[Cha][Cha]NL[Aib]TRQR[Cha]-NH2; N-terminus assumed; SMILES CC(C)C[C@H](NC(=O)[C@H](CC(N)=O)NC(=O)[C@H](CC1CCCCC1)NC(=O)[C@H](CC1CCCCC1)NC(=O)[C@H](Cc1c[nH]cn1)NC(=O)[C@H](CCCNC(=N)N)NC(=O)[C@H]1CCCN1C(=O)CCCCCCCN)C(=O)NC(C)(C)C(=O)N[C@H](C(=O)N[C@@H](CCCNC(=N)N)C(=O)N[C@@H](CCC(N)=O)C(=O)N[C@@H](CCCNC(=N)N)C(=O)N[C@@H](CC1CCCCC1)C(N)=O)[C@@H](C)O) [compound No. 117]	2.1	1.9
Ac-[D-Hyp24, Cha27,36, Leu(Me)28, Lys30, Aib31]-PYY(23-36) (Ac-S[dHyp]RH[Cha][tBuAla]NK[Aib]TRQR[Cha]-NH2; SMILES CC(=O)N[C@@H](CO)C(=O)N1C[C@@H](O)C[C@@H]1C(=O)N[C@@H](CCCNC(=N)N)C(=O)N[C@@H](Cc1c[nH]cn1)C(=O)N[C@@H](CC1CCCCC1)C(=O)N[C@@H](CC(C)(C)C)C(=O)N[C@@H](CC(N)=O)C(=O)N[C@@H](CCCCN)C(=O)NC(C)(C)C(=O)N[C@H](C(=O)N[C@@H](CCCNC(=N)N)C(=O)N[C@@H](CCC(N)=O)C(=O)N[C@@H](CCCNC(=N)N)C(=O)N[C@@H](CC1CCCCC1)C(N)=O)[C@@H](C)O) [compound No. 203]	0.38	0.76
Isobutanoyl-[Abu26, Cha27,36, Phe(4F)28, Aib31]-PYY(25-36) (Isobutyryl-R[Abu][Cha][Phe(4-F)]NL[Aib]TRQR[Cha]-NH2; SMILES CC[C@H](NC(=O)[C@H](CCCNC(=N)N)NC(=O)C(C)C)C(=O)N[C@@H](CC1CCCCC1)C(=O)N[C@@H](Cc1ccc(F)cc1)C(=O)N[C@@H](CC(N)=O)C(=O)N[C@@H](CC(C)C)C(=O)NC(C)(C)C(=O)N[C@H](C(=O)N[C@@H](CCCNC(=N)N)C(=O)N[C@@H](CCC(N)=O)C(=O)N[C@@H](CCCNC(=N)N)C(=O)N[C@@H](CC1CCCCC1)C(N)=O)[C@@H](C)O) [compound No. 79]	23	20
Ac-[D-MeAla24, Cha27,28,36, Aib31]-PYY(23-36) (Ac-S[dNMeA]RH[Cha][Cha]NL[Aib]TRQR[Cha]-NH2; SMILES CC(=O)N[C@@H](CO)C(=O)N(C)[C@H](C)C(=O)N[C@@H](CCCNC(=N)N)C(=O)N[C@@H](Cc1c[nH]cn1)C(=O)N[C@@H](CC1CCCCC1)C(=O)N[C@@H](CC1CCCCC1)C(=O)N[C@@H](CC(N)=O)C(=O)N[C@@H](CC(C)C)C(=O)NC(C)(C)C(=O)N[C@H](C(=O)N[C@@H](CCCNC(=N)N)C(=O)N[C@@H](CCC(N)=O)C(=O)N[C@@H](CCCNC(=N)N)C(=O)N[C@@H](CC1CCCCC1)C(N)=O)[C@@H](C)O) [compound No. 110]	3.4	2.2
Ac-[D-Pro24, Cit25, Cha27,36, Aib28,31, Lys30]-PYY(23-36) (Ac-S[dP][Cit]H[Cha][Aib]NK[Aib]TRQR[Cha]-NH2; SMILES CC(=O)N[C@@H](CO)C(=O)N1CCC[C@@H]1C(=O)N[C@@H](CCCNC(N)=O)C(=O)N[C@@H](Cc1c[nH]cn1)C(=O)N[C@@H](CC1CCCCC1)C(=O)NC(C)(C)C(=O)N[C@@H](CC(N)=O)C(=O)N[C@@H](CCCCN)C(=O)NC(C)(C)C(=O)N[C@H](C(=O)N[C@@H](CCCNC(=N)N)C(=O)N[C@@H](CCC(N)=O)C(=O)N[C@@H](CCCNC(=N)N)C(=O)N[C@@H](CC1CCCCC1)C(N)=O)[C@@H](C)O) [compound No. 226]	6.2	4.6
Ac-[D-Aze(2)24, Cha27,28,36, Aib31]-PYY(23-36) (Ac-S[dAze]RH[Cha][Cha]NL[Aib]TRQR[Cha]-NH2; SMILES CC(=O)N[C@@H](CO)C(=O)N1CC[C@@H]1C(=O)N[C@@H](CCCNC(=N)N)C(=O)N[C@@H](Cc1c[nH]cn1)C(=O)N[C@@H](CC1CCCCC1)C(=O)N[C@@H](CC1CCCCC1)C(=O)N[C@@H](CC(N)=O)C(=O)N[C@@H](CC(C)C)C(=O)NC(C)(C)C(=O)N[C@H](C(=O)N[C@@H](CCCNC(=N)N)C(=O)N[C@@H](CCC(N)=O)C(=O)N[C@@H](CCCNC(=N)N)C(=O)N[C@@H](CC1CCCCC1)C(N)=O)[C@@H](C)O) [compound No. 153]	1.7	1.3
Ac-[Abu23, D-Pro24, Abu26, Cha27,28,36, Aib31]-PYY(23-36) (Ac-[Abu][dP]R[Abu][Cha][Cha]NL[Aib]TRQR[Cha]-NH2; SMILES CC[C@H](NC(=O)[C@H](CCCNC(=N)N)NC(=O)[C@H]1CCCN1C(=O)[C@H](CC)NC(C)=O)C(=O)N[C@@H](CC1CCCCC1)C(=O)N[C@@H](CC1CCCCC1)C(=O)N[C@@H](CC(N)=O)C(=O)N[C@@H](CC(C)C)C(=O)NC(C)(C)C(=O)N[C@H](C(=O)N[C@@H](CCCNC(=N)N)C(=O)N[C@@H](CCC(N)=O)C(=O)N[C@@H](CCCNC(=N)N)C(=O)N[C@@H](CC1CCCCC1)C(N)=O)[C@@H](C)O) [compound No. 105]	6.9	4.0
Ac-[Arg23, D-Pro24, Iva25, Pya(4)26, Cha27,36, Aib28,31, Lys30]-PYY(23-36) (Ac-R[dP][Iva][4Pal][Cha][Aib]NK[Aib]TRQR[Cha]-NH2; SMILES CC[C@](C)(NC(=O)[C@H]1CCCN1C(=O)[C@H](CCCNC(=N)N)NC(C)=O)C(=O)N[C@@H](Cc1ccncc1)C(=O)N[C@@H](CC1CCCCC1)C(=O)NC(C)(C)C(=O)N[C@@H](CC(N)=O)C(=O)N[C@@H](CCCCN)C(=O)NC(C)(C)C(=O)N[C@H](C(=O)N[C@@H](CCCNC(=N)N)C(=O)N[C@@H](CCC(N)=O)C(=O)N[C@@H](CCCNC(=N)N)C(=O)N[C@@H](CC1CCCCC1)C(N)=O)[C@@H](C)O) [compound No. 321]	0.88	0.78
[D-pGlu24, Pya(4)26, Cha27,36, Aib28,31, Lys30]-PYY(24-36) ([d(pGlu)]R[4Pal][Cha][Aib]NK[Aib]TRQR[Cha]-NH2; SMILES C[C@@H](O)[C@H](NC(=O)C(C)(C)NC(=O)[C@H](CCCCN)NC(=O)[C@H](CC(N)=O)NC(=O)C(C)(C)NC(=O)[C@H](CC1CCCCC1)NC(=O)[C@H](Cc1ccncc1)NC(=O)[C@H](CCCNC(=N)N)NC(=O)[C@H]1CCC(=O)N1)C(=O)N[C@@H](CCCNC(=N)N)C(=O)N[C@@H](CCC(N)=O)C(=O)N[C@@H](CCCNC(=N)N)C(=O)N[C@@H](CC1CCCCC1)C(N)=O) [compound No. 250]	2	1.1
